Laboratory results taken from article doi:10.1101/2024.09.03.610704.

Tests used:
[1] = target: mitochondrial respiratory complex III dimer (Chlamydomonas reinhardtii); test: cryo-EM structure
[2] = target: mitochondrial respiratory complex IV monomer (Chlamydomonas reinhardtii); test: cryo-EM structure

cytochrome c (from UniProt P15451 1-112) (natural protein)
stoichiometry N (cyt. c per complex III dimer) [1]: 2
stoichiometry N (cyt. c per complex IV monomer) [2]: 1
